This note sets out measurements from the nanobody polyreactivity screen of Harvey et al. (2022).

The nature of the series: yeast display, Sf9 membrane polyspecificity reagent, FACS + sequencing; frameworks hold sequencing errors. A digest of the protocol: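 After 36–48 hours of galactose induction, yeast (Saccharomyces cerevisiae BJ5465) displaying a synthetic nanobody library were stained at 4 °C for 1 hour with 10% biotinylated, detergent-solubilized Sf9 membrane reagent. Streptavidin microbeads enriched the stained cells before FACS sorting into low and high (top ~1%) gates on anti-HA and streptavidin fluorescence. Each clone's polyreactivity label reflects its gate of origin.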
As for “QVQLEESGGGLVQAGGSLRLSCAASGSTFGFYAMRWYRQAPGKERDLVAAISSAARTYYADSVKGRFTISRDNAKNTVYLQMNSLKPADTAVYYCSAEAYHWTSYIGYGGVYYWGQGTQVTGSS”, the “polyreactivity (PSR sort gate)” value is on record as “low polyreactivity”. For “QVQLEESGGGLVQAGGSLRLSCAASGSTFVVYAMGWYRQAPGKERELVAAISGRGGRTYYADSVKGRFTISRDNAKNTVYLQMISLKPEDTAVYYCSTRYNNLYTIRVGEYDSWGQGTQVTVSS”, the “polyreactivity (PSR sort gate)” value was “high polyreactivity”. Regarding “QVQLEESGGGLVQAGGSLRLSCAASGSTFVYNALGWNRQAPGKEREFVAVINWSGGRTYADSVKGRFTISRDNAKTTVYLQMNSLNPDETEVYYCNAERRSYRFALQYRRYDYWGEGTQVTVSS”, the “polyreactivity (PSR sort gate)” value is recorded as “high polyreactivity”. For “QVQLEESGGGLVQAGGSLRLSCAASGSTFWFNAMGWYRQAPGKERELVAVITWSGDGTYYADSVKGRFTISRDNANYTVYLQRNSLKPEDTAVYYCAKGFERYPWYDYWGQGTQVTVSS” the value was “low polyreactivity”. In the case of “QVQLEESGGGLVQAGGSLRLSCAASGSTFYEYAMGWYRQAPGKERELVAAITTVGSTNYADSLKGRFTISRDNAKNTVYLQMNSLKPEDTAVYYCNKRPVILYDYWGLGTQVTVSS”, the “polyreactivity (PSR sort gate)” value is reported as “low polyreactivity”. As for “QVQLEESGGGLVQAGGSLRLSCAASGSTFYIYAMGSYRQAPGKERELVARMSGSGGSTYYADSVKGRFTISRDNAKNTVYLQMNSVKPEDTAVYYCAADDIYKYYQYYAFPYYRYDYWGQGTQVTVSS”, the entry is “low polyreactivity”; as for “QVQLEESGGGLVQAGGSLRLSCAASGSTFYPYAMGWYIQAPGTERELVAAISSRDGRTYYADSVKGRFTISRDNAKNTVYLQMNSLTPEDTAVYYCAASSFNNGHRYDYWGQGTQVTVSS”, “high polyreactivity”. Consider “QVQLEESGGGLVQAGGSLRLSCAASGSTNVKYAMGWYRQAPGKERELVAAITYSGDSTYYADSLKGRFTSSRDNAKNTVYLQINSLKPEDTAVYYWAAELVVRYMVSDYELEYWGQGTQVTVSS”, for which the “polyreactivity (PSR sort gate)” value is “low polyreactivity”. As to “QVQLEESGGGLVQAGGSLRLSCAASGSTYPSNAMGWYRQATGKERELVATITTGGSTYYADSVKGRFTISRDNAKNTVYLQMNSLKPEDTAVYYCNAEYVYLIFSVYLYDYDYWGLGTQVTVSS”, the “polyreactivity (PSR sort gate)” value is reported as “low polyreactivity”.

As for “QVQLEESGGGLVQAGGSLRLSCAASGYILNDYTKGWYRQAPGKERELVAAITSSGDRTYYADSVKGRFTISRDNAKNTVYLQMNSLNPEDTAVYYCAADIYLGDYYYWGLGTQVTVSS”, the “polyreactivity (PSR sort gate)” value was “low polyreactivity”.

Turning to “QVQLEESGGGLVQAGGSLRLSCAASGYTFSHYAIGWYRQAPGKERELVAGITWSGGSTYYADSVKGRFTISRDYAKNTVYLQMNSLKPEDTSVYYCAAKYYWYYSYSGIPLFDYWGQGTQVTVSS”, the “polyreactivity (PSR sort gate)” value is reported as “low polyreactivity”. In the case of “QVQLEESGGGLVQAGGSLRLSCAASGYTFYLYAMAWYRQSPGKERELVAAISTNGGRTYYADSVKGRFTISRDNAKNTVYLQMNSLKPEDTAVYYCAVRSRGTAPQYYYWGQGTQVTVSS”, the “polyreactivity (PSR sort gate)” value is given as “high polyreactivity”. As for “QVQLEESGGGLVQAGGSLRLSCAASGYTFYRYTMGWYRQAPGKERELVAAISSRGGSKYYADSVKGRFTISRDNAKNTVYLQMNSLKPEDTAVYFCARKYPRKTLSKGFDYWGQGTQVTVSS”, the entry is “high polyreactivity”. As for “QVQLEESGGGLVQAGGSLRLSCADSGRTFRFYTIGWYRQAPGKERELVASISWGGTSTYYADSVKGRFTISRDNANNTVYLQMISLKPEDTAVYSCAAPRWVEGFRFDYWGQGTQVTVSS”, the entry is “high polyreactivity”; as for “QVQLEESGGGLVQAGGSLRLSCAGSGRIFIHYTMGWYRQAPGKERELVAAISTSGGSTYYADSVKGRFTISRDTAKNTVYLQMKSLKPEDTAGYYCAPVYRGYSGEGYYWGQGSQVTVSS”, “high polyreactivity”. Turning to “QVQLEESGGGLVQAGGSLRLSCDASGFTFAYYAMGWYRPAPGKEREFVAAITKGGGSTNYADSVKGRFTISRDNAKNTVYLQMNSLKPEDTAVYYCNADYFVWYIGRVFSRYGYWGLGTQVTVSS”, the “polyreactivity (PSR sort gate)” value is recorded as “low polyreactivity”. For the sequence “QVQLEESGGGLVQAGGSLRLSCPASGRTFHGYAMGSYRQAPGKERELVAAITGTGGRTYYADSVKGRFTISRDNAKNTVYLQMNSLKPEDTAVYYCAARPWIKSGYWGQGTQVTVSS”, the “polyreactivity (PSR sort gate)” value is given as “high polyreactivity”. As for “QVQLEESGGGLVQAGGSLRLSCVASGSTFRFYAMGWYRPAPGNERQLVAAITWRGTSTYYADSVKGRFTISRDNAKNSVYLQMNSLKPEDTAVYYCNAAGYWPATGDYWGQGTQVTVSS”, the entry is “high polyreactivity”. For “QVQLEESGGGLVQAGGSLRLSFAAYGRTFGTNPMGWYRQATGKERELVAAITKSSSRTYYADSVKGRFTISRDNAKNTVYLQMNSLKPEDTAVYYCAARYYAVGGYDYWGQGTQVTVSS” the value was “high polyreactivity”. For “QVQLEESGGGLVQAGGSLRLTCAASGFTFGYYTMGWYRQAPGQERELVAAISSGGSTNYADSVKGRFTISRDNAKNTVYLEMNSLKPEDTAVYYCTATQIGPYYLPFDSWGQGTQVTVSS” the value was “high polyreactivity”. With “QVQLEESGGGLVQAGGSLRLTCAASGFTINEYAMGRYIQAPGKERELVAAISRGGTTYYADSVKGRFTISRDNAKNTVYLQMNSLKPEDTAVYYCAAPYFWNTEMDYWGQGTQVSVSS”, the “polyreactivity (PSR sort gate)” value is reported as “low polyreactivity”. On to “QVQLEESGGGLVQAGGSLRLTCAASGLIFHDYAMGWYRQATGTEMELVAAISWSDGTTYYADSVKGRFTISRDNAKITVYLQMNSLKPEDTAVYYCAAEEVSGWEYDFWGQGTQVTVSS”, for which the “polyreactivity (PSR sort gate)” value is recorded as “high polyreactivity”. For “QVQLEESGGGLVQAGGSLRLTCAASGRIFYRNSMGWYRQATGKERELVATISGRGGSTYYADSVKGRFTISRDNAKNTDYLQMNSLKPEDTAVYYCAVRNHGSVRWTGESWGQGTQVTVSS”, the “polyreactivity (PSR sort gate)” value is recorded as “high polyreactivity”. As for “QVQLEESGGGLVQAVGSLRLSCAASGFIFKRNAMGWYRQAPGKERELVAAITSRGGHTYYADSVKGRFTISRDNAKNTVYLQMNSLKAEDTAVYYCAATYASHDDYWGQGTQVTVSS”, the entry is “high polyreactivity”; as for “QVQLEESGGGVVQAGGSLRLSCAASGGTFSRYAMGWYRQATGKERELVAAITRSGASTFYADSVKGRFTISRDNAKNTVYLQMNSLKPEDTAVYYCAADTYVYNEYDYWGQGTQVTVSS”, “high polyreactivity”; as for “QVQLEESGGRLVQAGCSLRLSCAASGRTFDYYAMGWYRQAPGKEWELVAAITASGGSTFYADSVKGRFTISRDNAKNTVYLQMYSMKPEDTAVYYCAGRYTWRYFIKYGYWGQGTQVTVSS”, “high polyreactivity”. As for “QVQLEESGGRLVQAGCSLRLSCAASGYIFRKYAMGWYRQAPGKEWELVADISSSGGSTYYADSVKGRFTISRDNAKNTVYLQMNSLKPEDTAGYYCAKDRKSSRRINRMDYWGQGTQVTVSS”, the “polyreactivity (PSR sort gate)” value is reported as “high polyreactivity”. As for “QVQLEESGGRLVQAGGRLRLNCAASGLTFNTNSMGWYRKAPGKERELVAAISRGGGSTYYADSVKGRFTISRDNAKNSVYLQMNSLKPEDTAVYYCNAEKSASYLLYDYWGQGTLVTVSS”, the entry is “high polyreactivity”; as for “QVQLEESGGRLVQAGGSLRLICAASGSTFLANAMGWYRQAPGKERELVATISSGGSTNYADSVKGRFTISRDNAKNTVYLQMNSLKPEDTAVYYCAAEYWYAWQEYGYWGQGTQVTVSS”, “low polyreactivity”; as for “QVQLEESGGRLVQAGGSLRLSCAASGRTFYPYAMGWYRQAPGKERELVAAISYRGGSTYYADSVKGRFTISRDNAKNTVYLQMNSLKPEDTAVYYCAKRGYASGSKWDYGYWGQGTQVTVSS”, “high polyreactivity”. For “QVQLEESGGSLVQAGGSLRLSCAASGRTFYHYAMGWYRPAPGKERQLVAAISSGGSTKYADSVKGRFTISRDNAKNTVYLQMNSLKPEDTAVYYCAARTYQKGGRYYYWGQGTHVTVSS” the value was “high polyreactivity”. “QVQLEESGLALVQAGGSLRLSCADSGRIFRKKAMGWYRQAPGKERELVAAISSSGSTYYADSVKGRFKISRDNAKNTVYLQMNSLKPVDTAVYYCAARYQYGNRRGRDYWGQGTQVTVSS”: the “polyreactivity (PSR sort gate)” value is listed as “high polyreactivity”. For “QVQLEESGRGLVQAGGSLRLSCAASGSTLSTYSMGWYRQAPGKERELVAAITWSDDSTYYADSVKGRFTISRDNAKNTFYLQMNSLKPEDTAVYYCAAEYISWYFGYDYWGQGTQVTVSS” the value was “high polyreactivity”; for “QVQLEESGVGLVQAGGSLRLSCAASGSIIHYNAMGWYRKAPGKERELVASISSGGRTYYADSVKGRFTISRDNAKNTVYLQMNSLNQEDTAVYYCAAEYYQTTYVWWTYDYSWGLGTQVTVSS”, “low polyreactivity”. As for “QVQLEESRGGLVQAGGSLRLSCAASGSILTGYAMGLSRQAPGKERELVAAINFSGDNTYYADSVKGRFTISRDNAKNSVYLQMNSLKPEDTAVYYCNARNAVEDDYWGQGTQVTVSS”, the entry is “low polyreactivity”; as for “QVQLEESVGGLDQAGGSLRLSCAASGHIIVYYPLGWYRQAPGKERELVAAITSGGSTNYADSGKGRFTISRDNAKNTVYLQMNSLKPADSAVYYCAARQWFSHRRWGGSRYDYWGQGTQVTVSS”, “low polyreactivity”. For “QVQLEESVGGLVQAGCSLRLSCAASGGIFWVYAMGWYRQAPGKERELVAAISNSDTSTSYADSVKGRFTISRDNAKNTVYLQMNSLKPEDTAVYYCNADSPSLSGDYWGQGTQVTVSS” the value was “low polyreactivity”; for “QVQLEESVGGLVQAGGSLRLSCAASGLTFRAYAMGWYRQAPGKERELVAAISSGGSTSYADSVKGRFTISRDNANITVYLQMNRLKPEDSAVYYCAADRARRGIRDYYWGQGTQVTVSS”, “high polyreactivity”. As for “QVQLEESVGGLVQAGGSLRLTCAASGSTLSYYSMGWYRQAPGKERELVARITRSGGRTYYADSVKGRFTISRDNEKNTVYLQINSLKPEDTGVYYCNKVAYYSRRMDYWGQGTLVTVSS”, the “polyreactivity (PSR sort gate)” value was “high polyreactivity”. As for “QVQLEESVGGLVQAGRSLRLSCASSGTTFYYYALGWYRQAPGKERELVATIDSGTSTYYADSVKGRFTISRDNAKNTVYLQMNSLKPEDTAVYYCAAKTWSWSYGYNYWGQGTQVTVSS”, the entry is “low polyreactivity”; as for “QVQLEESWGGLVQAGGSLRLICAASGSIFSYYAMGWYRQAPGKERELVAVITSGGSTYYADSVKGRFTISRDNAKNTVYLQMNSLKPEDTAVYYCAVKYPELRTWGYYYWGQGTQVTVSS”, “high polyreactivity”.
